B1: human ClC-6 (natural protein)
chain: MAGCRGSLCCCCRWCCCCGERETRTPEELTILGETQEEEDEILPRKDYESLDYDRCINDPYLEVLETMDNKKGRRYEAVKWMVVFAIGVCTGLVGLFVDFFVRLFTQLKFGVVQTSVEECSQKGCLALSLLELLGFNLTFVFLASLLVLIEPVAAGSGIPEVKCYLNGVKVPGIVRLRTLLCKVLGVLFSVAGGLFVEKEGPMIHSGSVVGAGLPQFQSISLRKIQFNFPYFRSDRDKRDFVSAGAAAGVAAAFGAPIGGTLFSLEEGSSFWNQGLTWKVLFCSMSATFTLNFFRSGIQFGSWGSFQLPGLLNFGEFKCSDSDKKCHLWTAMDLGFFVVMGVIGGLLGATFNCLNKRLAKYRMRNVHPKPKLVRVLESLLVSLVTTVVVFVASMVLGECRQMSSSSQIGNDSFQLQVTEDVNSSIKTFFCPNDTYNDMATLFFNPQESAILQLFHQDGTFSPVTLALFFVLYFLLACWTYGISVPSGLFVPSLLCGAAFGRLVANVLKSYIGLGHIYSGTFALIGAAAFLGGVVRMTISLTVILIESTNEITYGLPIMVTLMVAKWTGDFFNKGIYDIHVGLRGVPLLEWETEVEMDKLRASDIMEPNLTYVYPHTRIQSLVSILRTTVHHAFPVVTENRGNEKEFMKGNQLISNNIKFKKSSILTRAGEQRKRSQSMKSYPSSELRNMCDEHIASEEPAEKEDLLQQMLERRYTPYPNLYPDQSPSEDWTMEERFRPLTFHGLILRSQLVTLLVRGVCYSESQSSASQPRLSYAEMAEDYPRYPDIHDLDLTLLNPRMIVDVTPYMNPSPFTVSPNTHVSQVFNLFRTMGLRHLPVVNAVGEIVGIITRHNLTYEFLQARLRQHYQTI
notes: ClC-6 (chloride-proton exchanger), human; cDNA in the pEG BacMam vector; residues up to H851 are seen in the structure, so the whole protein is likely; also called WT ClC-6; apo-ClC-6; source: HEK293F cells, BacMam virus, purified (Strep-Tactin Sepharose, size exclusion chromatography) in digitonin
B2: ClC-6 mutant (Y553C) (natural protein, human)
chain: MAGCRGSLCCCCRWCCCCGERETRTPEELTILGETQEEEDEILPRKDYESLDYDRCINDPYLEVLETMDNKKGRRYEAVKWMVVFAIGVCTGLVGLFVDFFVRLFTQLKFGVVQTSVEECSQKGCLALSLLELLGFNLTFVFLASLLVLIEPVAAGSGIPEVKCYLNGVKVPGIVRLRTLLCKVLGVLFSVAGGLFVEKEGPMIHSGSVVGAGLPQFQSISLRKIQFNFPYFRSDRDKRDFVSAGAAAGVAAAFGAPIGGTLFSLEEGSSFWNQGLTWKVLFCSMSATFTLNFFRSGIQFGSWGSFQLPGLLNFGEFKCSDSDKKCHLWTAMDLGFFVVMGVIGGLLGATFNCLNKRLAKYRMRNVHPKPKLVRVLESLLVSLVTTVVVFVASMVLGECRQMSSSSQIGNDSFQLQVTEDVNSSIKTFFCPNDTYNDMATLFFNPQESAILQLFHQDGTFSPVTLALFFVLYFLLACWTYGISVPSGLFVPSLLCGAAFGRLVANVLKSYIGLGHIYSGTFALIGAAAFLGGVVRMTISLTVILIESTNEITCGLPIMVTLMVAKWTGDFFNKGIYDIHVGLRGVPLLEWETEVEMDKLRASDIMEPNLTYVYPHTRIQSLVSILRTTVHHAFPVVTENRGNEKEFMKGNQLISNNIKFKKSSILTRAGEQRKRSQSMKSYPSSELRNMCDEHIASEEPAEKEDLLQQMLERRYTPYPNLYPDQSPSEDWTMEERFRPLTFHGLILRSQLVTLLVRGVCYSESQSSASQPRLSYAEMAEDYPRYPDIHDLDLTLLNPRMIVDVTPYMNPSPFTVSPNTHVSQVFNLFRTMGLRHLPVVNAVGEIVGIITRHNLTYEFLQARLRQHYQTI
notes: ClC-6, human, with the disease-causing patient variant p.Y553C; made as apo-ClC-6; Variant found in patients (heterozygous p.Y553C), so the origin is written as natural; also called Y553C mutant; p.Y553C; source: HEK293F cells, BacMam virus, purified (Strep-Tactin Sepharose, size exclusion chromatography) in digitonin

Target: the molecule itself
Experiment: cryo-EM structure; purified ClC-6 in 150 mM NaCl, 0.1% digitonin, 20 mM Hepes pH 7.4; apo, with 2 mM ATP and 2 mM MgCl2, and the Y553C mutant; C2 symmetry imposed

Protein | stoichiometry N | binding result
B1 | 2 | 
B2 |  | binds

Reference: publication PMC10575590, “Molecular basis of ClC-6 function and its impairment in human disease” (Science Advances, 2023)
